Data taken from patent publication US6365154 (GlaxoSmithKline, dated 2002).

Legend:
[1] = biological target: T1, recombinant Tie2 extracellular domain-Fc fusion (UniProt Q02763 23-748); assay: BIAcore SPR; mAb captured on rabbit anti-mouse IgG Fc, Tie2-Fc injected
T1 construct: extracellular domain; also called Tie2-Fc; Tie2 receptor-Fc fusion; not shown: It is probably human IgG Fc: human IgG1 was added to remove anti-Fc mAbs, and the fusion was ca
Procedure: The affinity of the purified mAbs was measured in the BIAcore. Using a flow rate of 10 ul/min, the mAb (diluted in HBS buffer) was injected over a rabbit anti-mouse IgG Fc surface, followed by buffer flow and the RU recorded. Tie2-Fc diluted in HBS buffer was then injected for 120s followed by buffer flow for 240s and regeneration of the sensor chip surface with an injection of 15 ul 0.1 M phosphoric acid. BIAcore software was used for association and dissociation-phase analysis. The murine monoclonal antibodies bound to soluble monomeric Tie2 receptor. The on-rates ($kass$) and off-rates ($kdiss$) were calculated.

[2] = biological target: Tie2 receptor on HEL cells or HUVECs (human, UniProt Q02763 23-1124); assay: cell-based or functional assay
Tie2 receptor on HEL cells or HUVECs, sequence (Q02763 23-1124): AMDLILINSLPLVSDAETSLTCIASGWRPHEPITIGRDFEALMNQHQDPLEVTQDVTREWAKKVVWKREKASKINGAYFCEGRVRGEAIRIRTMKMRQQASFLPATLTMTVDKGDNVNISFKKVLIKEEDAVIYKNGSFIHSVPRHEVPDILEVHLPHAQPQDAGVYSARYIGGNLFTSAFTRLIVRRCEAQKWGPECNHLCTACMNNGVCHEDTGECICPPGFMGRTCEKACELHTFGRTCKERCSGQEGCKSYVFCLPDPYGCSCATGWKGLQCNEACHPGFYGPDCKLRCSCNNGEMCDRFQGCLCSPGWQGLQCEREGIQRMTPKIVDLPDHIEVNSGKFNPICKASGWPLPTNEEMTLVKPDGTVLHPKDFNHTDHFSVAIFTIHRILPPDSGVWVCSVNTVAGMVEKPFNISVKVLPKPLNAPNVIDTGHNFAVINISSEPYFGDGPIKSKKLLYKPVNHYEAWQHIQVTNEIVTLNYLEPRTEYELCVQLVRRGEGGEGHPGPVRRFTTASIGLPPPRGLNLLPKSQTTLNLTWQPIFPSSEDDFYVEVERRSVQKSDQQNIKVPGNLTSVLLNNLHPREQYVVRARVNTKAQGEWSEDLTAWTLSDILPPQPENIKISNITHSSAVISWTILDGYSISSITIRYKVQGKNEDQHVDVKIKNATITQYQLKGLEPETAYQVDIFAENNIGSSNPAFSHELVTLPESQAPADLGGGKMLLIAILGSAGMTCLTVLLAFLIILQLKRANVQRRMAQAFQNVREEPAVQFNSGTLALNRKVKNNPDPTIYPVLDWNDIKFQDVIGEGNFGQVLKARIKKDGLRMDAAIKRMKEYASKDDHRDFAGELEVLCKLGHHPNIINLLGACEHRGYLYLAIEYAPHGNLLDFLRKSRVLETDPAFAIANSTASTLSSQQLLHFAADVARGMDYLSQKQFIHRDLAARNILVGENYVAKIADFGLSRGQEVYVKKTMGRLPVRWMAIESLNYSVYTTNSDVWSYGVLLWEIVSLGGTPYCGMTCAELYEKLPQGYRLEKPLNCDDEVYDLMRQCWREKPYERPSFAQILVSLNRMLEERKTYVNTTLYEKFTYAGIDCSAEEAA

T1 sequence (Q02763 23-748): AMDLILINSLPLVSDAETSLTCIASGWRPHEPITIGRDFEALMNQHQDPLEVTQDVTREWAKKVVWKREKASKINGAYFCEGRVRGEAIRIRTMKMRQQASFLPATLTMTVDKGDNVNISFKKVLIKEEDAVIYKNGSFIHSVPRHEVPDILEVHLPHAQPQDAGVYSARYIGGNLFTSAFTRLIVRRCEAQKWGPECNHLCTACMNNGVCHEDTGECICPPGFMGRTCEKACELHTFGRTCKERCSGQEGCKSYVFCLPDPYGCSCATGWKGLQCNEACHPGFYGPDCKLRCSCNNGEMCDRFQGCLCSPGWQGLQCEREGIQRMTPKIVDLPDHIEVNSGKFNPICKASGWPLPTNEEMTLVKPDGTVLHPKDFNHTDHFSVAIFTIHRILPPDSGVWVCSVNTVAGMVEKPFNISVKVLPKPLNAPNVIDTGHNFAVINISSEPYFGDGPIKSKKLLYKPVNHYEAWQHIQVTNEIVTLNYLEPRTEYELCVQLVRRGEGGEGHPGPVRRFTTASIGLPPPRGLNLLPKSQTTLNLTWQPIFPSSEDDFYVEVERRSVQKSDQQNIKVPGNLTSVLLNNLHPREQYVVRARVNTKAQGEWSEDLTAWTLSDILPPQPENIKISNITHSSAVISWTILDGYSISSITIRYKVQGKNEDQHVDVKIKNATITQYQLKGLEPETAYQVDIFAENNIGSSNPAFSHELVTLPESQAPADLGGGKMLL

Binder	Kd [1]	Tie2 receptor tyrosine phosphorylation (immunoprecipitation and anti-phosphotyrosine Western blot, ratio to Tie-2 staining) [2]
murine monoclonal antibody 13H10 (antibody, V domains shown, Constant regions are mouse IgG heavy and kappa light, going by the PCR primers; also called mAb 13H10; mAb 13H 10) VH: QIQLVQSGPELKKPGETVKISCKASGYTFTDFSIHWVKQAPGKGLKWMGWINTETGETTYAEDFKGRFAFSLETSASTAYLQINNLKNEDTATYFCSRRYDYDTWFAYWGQGTLVTVS VL: DIVMTQAALSVPVTPGESVSISCRSSSSLLHRNGNTYLYWFLQRPGQSPQLLIYRMSNLASGVPDRFSGSGSGTAFTLRISRVEAEDVGVYYCMQRLEYPFTFGGGTKLEIKR	3.1 nM	–
murine monoclonal antibody 15B8 (antibody, V domains shown, Constant regions are mouse IgG heavy and kappa light, going by the PCR primers; also called mAb 15B8; mAb 1 B 8) VH: QVQLQQPGVVLVMPGASVKLSCKASGYTFASYWMHWVKQRPGQGLEWIGEIDPSDSYRNYNQKFKGKATLTVDKSSSTVNMQLSSLTSEDSAVYYCAKTSGIGRAMDYWGQGTSVTVSS VL: DIQMIQSPASLSASVGETVTITCRASENIYSFVTWYQQKQGKSPQLLVFNAKNLVEGVPSSFSGSGSGTQFSLKIDSLQPEDFGTYYCQHHYSIPYTFGGGTKLEMR	0.24 nM	> 2 fold over basal
